This is an account of results in the RNAGym collection of RNA variant scans (doi:10.7554/elife.80360).

B1: CPEB3 Ribozyme (parent)
chain: GGGGGCCACAGCAGAAGCGUUCACGUCGCGGCCCCUGUCAGAUUCUGGUGAAUCUGCGAAUUCUGCUGU

The variants in this series derive from B1. The series can be described thus: self-cleavage, relative activity (ratio to wild type); higher = more cleavage; co-transcriptional.
Consider C22A C63U, for which the self-cleavage was found to be 0.194. C22U C57U: the self-cleavage was determined as 0.192. C22U C57G: the self-cleavage was determined as 0.144. As for C22G A60G, the self-cleavage was 0.265. As for U21C A59C, the self-cleavage was determined as 0.351.

As for C22G C27G, the self-cleavage worked out at 0.16. Regarding C22G G50A, the self-cleavage was determined as 0.189. Consider U21G C34G, for which the self-cleavage came out at 0.193. Regarding U21G C34U, the self-cleavage was 0.53.

In the case of U21G G65A, the self-cleavage was 0.255. For U21G C63U the value was 0.434; for U21G C63G, 0.158; for U20C U36C, 0.159. For U20C U36G the value was 0.116. Turning to C22A C39A, the self-cleavage was found to be 0.161.

For C22A C39G, the self-cleavage stood at 0.223. As for U21C U67G, the self-cleavage is 0.978. For the variant C22A C54A, the self-cleavage was determined as 0.0889. Consider U20C U61G, for which the self-cleavage turned out to be 0.226. Regarding U20C C27A, the self-cleavage worked out at 0.17. Take U20C G30A: the self-cleavage came to 0.17.

As to C22U A23C, the self-cleavage was 0.276. Consider U20G U21C, for which the self-cleavage turned out to be 0.166. The figure for C22U C35G is 0.165; for U21C A42C it is 0.853. As to U20C C29G, the self-cleavage worked out at 0.165. For U21C A60C the value was 0.406; for U21C U61A, 0.538; for U20C G48C, 0.229. The figure for C22A U26A is 0.117; for U20C U67C it is 0.131; for C22G U26A it is 0.144. C22G U26C: the self-cleavage amounted to 0.209. Regarding U21G C27A, the self-cleavage stood at 0.196. As to U21G C27U, the self-cleavage stood at 0.112. Take C22U C24A: the self-cleavage is 0.179.

Take U21A C66U: the self-cleavage came to 0.985. For the variant U20C U53A, the self-cleavage amounted to 0.135. In the case of U20C U53G, the self-cleavage is 0.167. The figure for U21G A23G is 0.549. For U21A G30A, the self-cleavage came to 0.866.

Consider U21A G65U, for which the self-cleavage amounted to 0.795. For U21A G65A, the self-cleavage came to 0.862. As for U21C U53G, the self-cleavage came out at 0.724.

U20G G28U: the self-cleavage was determined as 0.161. For U20G C32G the value was 0.179; for U20G A51U, 0.219; for U20G A51C, 0.27. C22A U44A: the self-cleavage worked out at 0.184.

For the variant C22A U44C, the self-cleavage was 0.217.

With U21G U49G, the self-cleavage stood at 0.486. On to U21G U49A, for which the self-cleavage stood at 0.527. As to C22U C54U, the self-cleavage came out at 0.349. Consider C22U C54G, for which the self-cleavage is 0.285. With U21A U61C, the self-cleavage is 0.728. Take U21A C22U: the self-cleavage is 0.325.

U21A U67G: the self-cleavage worked out at 1.02.

With C22G C33G, the self-cleavage stood at 0.216.

In the case of U21C G56C, the self-cleavage was found to be 0.426. For C22G U53A, the self-cleavage came to 0.136.

As to C22U U61A, the self-cleavage was 0.18.

As for U20G C63A, the self-cleavage came to 0.157. As for U21A G28U, the self-cleavage was 0.241.

As to C22U U62C, the self-cleavage is 0.171. As to U21G U64C, the self-cleavage was found to be 0.254. With U21G U64A, the self-cleavage amounted to 0.304. For U21G U64G, the self-cleavage turned out to be 0.295.

For U21A C24U, the self-cleavage is 0.69.

For U20G U62C, the self-cleavage came to 0.244. For U21A C27G, the self-cleavage amounted to 0.222. Turning to U20G C34A, the self-cleavage stood at 0.223. For the variant C22U A42G, the self-cleavage was determined as 0.204. With C22G G68C, the self-cleavage was found to be 0.156.

C22G G68A: the self-cleavage was 0.267.

Turning to U21G C24G, the self-cleavage came out at 0.0852. On to U20G C33U, for which the self-cleavage was determined as 0.145.

On to U21G U26C, for which the self-cleavage was 0.308. U21G G50A: the self-cleavage stood at 0.488. On to U21G G50C, for which the self-cleavage was 0.616. The figure for C22U G30U is 0.221.

Regarding C22U G30A, the self-cleavage is 0.164. In the case of C22A G50A, the self-cleavage was 0.24. For U21G C45A the value was 0.643; for U21G C45G, 0.567; for U21G C45U, 0.593. With C22G G31A, the self-cleavage stood at 0.137. Consider C22G G31C, for which the self-cleavage was determined as 0.0776. As to U20G U36G, the self-cleavage worked out at 0.16. As for U20C A52G, the self-cleavage was 0.161. For U20G G48C the value was 0.224; for C22G C45U, 0.158; for C22U C29A, 0.172. U20C C32G: the self-cleavage was 0.218. The figure for U20C C32U is 0.248; for C22U U49A it is 0.297; for U21A G58U it is 0.996.

For the variant U21A G58C, the self-cleavage came out at 0.938. U20C U43A: the self-cleavage came to 0.227. With U20C U43G, the self-cleavage came to 0.241. U21G U38C: the self-cleavage turned out to be 0.932. Turning to U20C G65U, the self-cleavage was found to be 0.18.

U20C G65C: the self-cleavage turned out to be 0.126.

Take C22A U67C: the self-cleavage was 0.21.

As for C22A G65C, the self-cleavage was determined as 0.147. For U21A A42U the value was 0.941. Consider U20C A51U, for which the self-cleavage was found to be 0.172. Regarding C22A C66A, the self-cleavage was determined as 0.232.

As to U21A A59U, the self-cleavage was determined as 0.891. Turning to U21C A52U, the self-cleavage was 0.93. Turning to U21C A52G, the self-cleavage was determined as 0.887. Turning to C22A C27U, the self-cleavage was found to be 0.144. Take C22A C27G: the self-cleavage is 0.168. Take C22A C27A: the self-cleavage is 0.158. In the case of C22U U46G, the self-cleavage turned out to be 0.274. For C22U U46C the value was 0.369; for C22G C32U, 0.182; for C22G U44G, 0.16. Regarding U20G U64A, the self-cleavage is 0.152. As for U20G U64G, the self-cleavage worked out at 0.117. With U20G U26A, the self-cleavage is 0.163. With U20G U26G, the self-cleavage turned out to be 0.123. As to C22A U62C, the self-cleavage stood at 0.17.

With C22A U62A, the self-cleavage amounted to 0.148. In the case of C22A G47C, the self-cleavage turned out to be 0.157.

Turning to U21C G68C, the self-cleavage was determined as 0.899. For U21C G68U, the self-cleavage was determined as 1.

Turning to U21C U26A, the self-cleavage amounted to 0.216. As to C22A U55G, the self-cleavage was found to be 0.162.

Take C22U C32G: the self-cleavage worked out at 0.133. For U20C C57A the value was 0.232. For U20C C57U, the self-cleavage is 0.194. In the case of C22A C45A, the self-cleavage amounted to 0.155. With C22A C45U, the self-cleavage is 0.158.

Turning to C22U G28C, the self-cleavage was 0.126.

Consider U20G C22U, for which the self-cleavage worked out at 0.141. Regarding C22G U46G, the self-cleavage came out at 0.178. Regarding U21A U64G, the self-cleavage was 0.898. As to C22G U49A, the self-cleavage worked out at 0.172. The figure for C22U U26G is 0.207. Take C22U U26C: the self-cleavage was determined as 0.279. Regarding U21G A42G, the self-cleavage was found to be 0.558. As to U21C C57G, the self-cleavage is 0.384. Turning to U21G U36C, the self-cleavage worked out at 0.134. Regarding U21G U36G, the self-cleavage was 0.232. C22G C57A: the self-cleavage amounted to 0.221. With C22G C57U, the self-cleavage is 0.148.

For the variant U21C U55G, the self-cleavage turned out to be 0.723. On to U21C U55A, for which the self-cleavage is 0.843. In the case of U21C U44C, the self-cleavage was 0.824. For the variant U21C U44A, the self-cleavage came out at 0.911.

For the variant U21C U44G, the self-cleavage was 0.859. For U20G U38G the value was 0.123. For the variant C22G A23C, the self-cleavage turned out to be 0.179. As for C22G A23U, the self-cleavage worked out at 0.24.

U20G G58C: the self-cleavage was determined as 0.099. Regarding U21G A59U, the self-cleavage was determined as 0.219. Turning to U21G A59G, the self-cleavage worked out at 0.675.

On to U20G G68U, for which the self-cleavage is 0.183. For U20G U61A the value was 0.207. For the variant U21A U43C, the self-cleavage was determined as 0.909.

In the case of C22U G48A, the self-cleavage stood at 0.379.

As for U21G C54A, the self-cleavage amounted to 0.341. Consider U21G G25A, for which the self-cleavage was 0.284. The figure for U21C C22U is 0.268; for U21C C22G it is 0.0423; for U21A C35G it is 0.198.

As to C22G G58A, the self-cleavage was determined as 0.103.
